Reference: PMC6329520, “Diversification of DNA binding specificities enabled SREBP transcription regulators to expand the repertoire of cellular functions that they govern in fungi”

T1: AfSrbA DBD (Aspergillus fumigatus, UniProt Q4WIN1 145-266)
T1 sequence: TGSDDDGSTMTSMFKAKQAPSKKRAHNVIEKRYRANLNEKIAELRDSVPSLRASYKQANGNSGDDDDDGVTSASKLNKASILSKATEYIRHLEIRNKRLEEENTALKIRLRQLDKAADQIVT

T2: CpHms1 DBD (Candida parapsilosis, UniProt G8B9T4 486-659)
T2 sequence: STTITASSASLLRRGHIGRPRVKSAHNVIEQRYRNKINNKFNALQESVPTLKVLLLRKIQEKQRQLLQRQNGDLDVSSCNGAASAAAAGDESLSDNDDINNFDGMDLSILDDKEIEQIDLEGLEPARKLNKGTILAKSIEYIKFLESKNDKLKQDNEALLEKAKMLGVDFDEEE

T3: CaCph2 DBD (Candida albicans, UniProt Q59RL7 197-302)
T3 sequence: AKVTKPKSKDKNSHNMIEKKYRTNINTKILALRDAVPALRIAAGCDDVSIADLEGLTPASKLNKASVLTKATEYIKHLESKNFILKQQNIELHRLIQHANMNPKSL

B1: non-palindromic site fragment (HMS1 cognate site) (dsDNA)
DNA 1: ACAAAAAAAAATCAGGCCATTTGTAATACT
DNA 2: AGTATTACAAATGGCCTGATTTTTTTTTGT

Columns and labels:
[1] = target: T1, AfSrbA DBD; assay: competition; details: unlabeled competitor vs labeled N1; at least one order of magnitude; Standard EMSA buffer (composition by reference), 90 min, room temperature, 6% polyacrylamide gel in 0.5x TGE; pH and salt not given
[2] = target: T4, CaHms1 DBD (Candida albicans, UniProt A0A1D8PMZ4 463-685); assay: competition; details: unlabeled competitor vs labeled N1; at least one order of magnitude; Standard EMSA buffer (composition by reference), 90 min, room temperature, 6% polyacrylamide gel in 0.5x TGE; pH and salt not given
[3] = target: T1, AfSrbA DBD; assay: EMSA; 0-100 nM protein; Standard EMSA buffer (composition by reference), 90 min, room temperature, 6% polyacrylamide gel in 0.5x TGE; pH and salt not given; details: protein: recombinant; tags: N-terminal 6xHis or 6xHis-MBP (primers: pLIC-H3); chain copies: 2; label: 32P
[4] = target: T2, CpHms1 DBD; assay: as above; details: protein: recombinant; tags: N-terminal 6xHis or 6xHis-MBP (primers: pbRZ75); chain copies: 2; label: 32P
[5] = target: T4, CaHms1 DBD; assay: as above; details: protein: recombinant; tags: N-terminal 6xHis or 6xHis-MBP (primers: pLIC-H3); chain copies: 2; label: 32P
[6] = target: T3, CaCph2 DBD; assay: competition; little if any discrimination from N3; Standard EMSA buffer (composition by reference), 90 min, room temperature, 6% polyacrylamide gel in 0.5x TGE; pH and salt not given; details: protein: recombinant; tags: N-terminal 6xHis or 6xHis-MBP (primers: pLIC-H3); chain copies: 2; label: 32P

Molecule | binding signal (fold weaker than N1) [1] | binding signal (fold weaker than N1) [2] | binding result [3] | binding result [4] | binding result [5] | binding result [6]
palindromic canonical E-box fragment | > 10 | > 10 | – | – | – | –
B1 | – | – | binds | binds | binds | binds
